Reference: the supplement of paper PMC9170038

Columns and labels:
[1] = tested on: K4 kissing-loop RNA reporter; test: apparent KD of K4 kissing-loop reporter; higher = weaker reporter binding; details: Eterna round: R107;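 note: bound reporter read as fluorescence of individual clusters on recovered sequencing chips by microscopy, with normalized cluster intensities fitted with a binding model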
Procedure: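 RNA-MaP round R107: designed RNA switches with theophylline, tryptophan, arginine or FMN aptamers are transcribed on-chip within common flanks. They are titrated with a labelled K4 kissing-loop RNA reporter in RNA-MaP buffer (100 mM Tris pH 7.5, 80 mM KCl, 4 mM MgCl2), without ligand or with the indicated ligand. Median apparent KD per design.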

[2] = tested on: MS2 coat protein; test: apparent KD of MS2 coat protein; designed switch direction (-1 OFF switch, 1 ON switch): -1; higher = weaker reporter binding
How it was run: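 Each step of the titration lasted 0.8–1.5 h at the lowest concentration and 10–20 min at the highest. The protein, SNAP-549-labelled MS2 coat protein, went from 0.7 or 1.5 nM doubling to 3 µM over RNA switches transcribed on Illumina chips by stalled E. coli RNA polymerase. Normalised cluster fluorescence was curve-fitted, and the per-design median over clusters is given as apparent KD.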

[3] = input ligand: theophylline 20 uM
[4] = input ligand: tryptophan 2.4 mM
[5] = Eterna round: R95, input ligand: FMN 200 uM
[6] = Eterna round: R95, input ligand: microRNA oligo, concentration not stated
[7] = Eterna round: R95, input ligand: none
[8] = input ligand: microRNA oligo, concentration not stated

| Sequence | apparent KD of K4 kissing-loop reporter ([1]; input ligand: FMN 200 uM) [nM] | apparent KD of K4 kissing-loop reporter ([1]; input ligand: arginine 13.2 mM) [nM] | apparent KD of K4 kissing-loop reporter ([1]; input ligand: none) [nM] | apparent KD of K4 kissing-loop reporter [1, 3] [nM] | apparent KD of K4 kissing-loop reporter [1, 4] [nM] | apparent KD of MS2 coat protein ([2]; input ligand: FMN 200 uM) [nM] | apparent KD of MS2 coat protein ([2]; input ligand: none) [nM] | other results |
| --- | --- | --- | --- | --- | --- | --- | --- | --- |
| CCAUUCUGUUACGAUACCAGUCAAAGAUAUUUGAUCAAUACCCUCGCCGAGUGAUGUUCGGACCCUUGGCAGCGUCUGGGACAGG [fdxxvmullin] | 1320 | 437 | 558 | 427 | 550 |  |  |  |
| GGCAGUGAUGUUGCCAGUGGCAGAUUAGAAGGAGCGUGGUGAGACACAGGUAGGUCGCUAAUUGAAAUUGCUGUCACUAAAAUGC [#6] | 292 | 282 | 300 | 368 | 212 |  |  |  |
| UGCGGUAGUGAUGUUACCUCAUUAUACUAGCGAGGACCGGUACGGCCGCCACUCGACUUCCUCCACGCCUAGGCCUCUACGUUCA [theeternabot_sameState_KL_Trp_A_36] | 136 | 122 | 137 | 127 | 98.2 |  |  |  |
| GGAUAGGACAGAGGAUAUCUCUGAGGCAAGAAAACUUGUCUCUAAGGAGAUGACUCAGUGAUGUUGAGAGAAGGCUGUCCUAUCG [FmnBX 12 - #SwitchBubble #StaticStem] | 230 | 144 | 155 | 140 | 157 |  |  |  |
| UGUGUUUACCUGACUCAGUGAUGUUGAGAAGGAGCGUGAGAAAGCACAGGUAGGUCGCUCAACCUAAAUUCAGGUGAGCACUAAA | 241 | 274 | 238 | 302 | 204 |  |  |  |
| AAUAUAGUGAUGUUAUAUAAGAAGGAGUUACGAGGACCGGUACGGCCGCCACUCGAAACGAGUGAGGGUUUGGGAGAUUGGGCCC [SSTryptA.J] | 493 | 310 | 451 | 322 | 384 |  |  |  |
| AAGGCCACGAGAAGGAGCGUGUUGUGGAGUGAUGUUCCAUUGUAGACCUAAGGUCUGCGAGCACAGGUAGGUCGCUCGUGGUCAA [whbob_SS_Arginine_B_2t150] | 108 | 116 | 107 | 110 | 117 |  |  |  |
| UGUCAUGGAAACAUGAACGUUGAUGUUCGACGAGGACCGGUACGGCCGCCACUCGAGUAAUAGUCAGUGAUGUUGACUAGUCUAA [KL-SSTryp-A form1] | 76.7 | 107 | 95 | 112 | 75.7 |  |  |  |
| AUUGUCGGAGUCUGUGCUGACUGACGAGCAAAGGAUAUGUUAUUAAACAGAAGGUUGUGCUGCUUAAGUGAUGUUUUUGGAGCUA [theeternabot_sameState_KL_FMN_A_26] | 308 | 190 | 239 | 228 | 216 |  |  |  |
| UUGGUUAUCUAUGGGAGUAACAUGAGGAUCACCCAUGUAUGUCUUGUUUUUUGUUCGUCAUAGGCCUUUUGUUUGGA [JR_SV3TOV1_Sub024] (puzzle: Sensor v3, turn-off variant 1) |  |  |  |  |  |  |  | apparent KD of MS2 coat protein [2, 5]: 28.6 nM; apparent KD of MS2 coat protein [2, 6]: 35 nM; apparent KD of MS2 coat protein [2, 7]: 29.8 nM |
| UUUUUAGAUGAAGGAUAUACUUAACAUGAGGAUCACCCAUGUGGUGUUGUGAGUGAGUGAGUUUAGUAGAAGGUCAAUUCUUUU [JMF's solution 87] (Eterna round: R96, puzzle: Exclusion NG 2) |  |  |  |  |  | 566 | 346 | apparent KD of MS2 coat protein [2, 8]: 311 nM |
| AGAUGGCGAGGAUAUACAUGAGGAUCACCCAUGUGAGAUAAAUAAGUGAGGAAGAAAAGUAGAAGGCGCUGUCA [Mat - Exclusion 3 - Mod of Salish D14] (puzzle: Exclusion 3) |  |  |  |  |  |  |  | apparent KD of MS2 coat protein [2, 6]: 74.3 nM |
| AGCCUGUAAGUAGGAUAUAUGAUCAGGAAUGAAAUAGAAGGGCUUAGUGGACAUGAGGAUCACCCAUGUCAAUGGGUUCAUGCA [Edria] (Eterna round: R96, puzzle: Exclusion NG 1) |  |  |  |  |  | 15 | 22.5 | apparent KD of MS2 coat protein [2, 8]: 16 nM |
| GCCAGAGCAGGAUAUCUAAUAUGUCACAUGAGGAUCACCCAUGUCCAGCGAAAGCUGGAGGGAGAAGGGCUCUGGC [Fiskers Ex 5 - 21] (puzzle: Exclusion 5) |  |  |  |  |  |  |  | apparent KD of MS2 coat protein [2, 6]: 51.8 nM |
| UAAACCAGAGGAUAUGCGAAUAAAUAAAACUUUUUUUUUUAACAUGAGGAUCACCCAUGUAGAAGGCUGCAAUU [Ex2 #32] (Eterna round: R97, puzzle: Exclusion 2) |  |  |  |  |  | 30.4 | 30 |  |
| UUUAAUUUUUUUUUUUUACAAGCUUUUUGCUCGUCUUAUACAUGAGGAUCACCCAUGUAGAUGGGAAGUAAAUUAUC [JMF 53] (puzzle: Sensor v3, turn-off variant 2) |  |  |  |  |  |  |  | apparent KD of MS2 coat protein [2, 5]: 24.7 nM; apparent KD of MS2 coat protein [2, 6]: 200 nM; apparent KD of MS2 coat protein [2, 7]: 24.5 nM |
| AGUACUAUGCGAGCUGACUUGCGUAGUGCAGCAAGUGAAACAUGAGGAUCACCCAUGUCCUCAUUUGCUCGUCUUAU [Mat - Sensor v3 - Turn-off var 2 - D1] (puzzle: Sensor v3, turn-off variant 2) |  |  |  |  |  |  |  | apparent KD of MS2 coat protein [2, 5]: 35.3 nM; apparent KD of MS2 coat protein [2, 6]: 453 nM; apparent KD of MS2 coat protein [2, 7]: 30.8 nM |
| AGAUGUUAAGAGGAUAUCAGCCAAAACCGGCAGUGAGAAGGCUUGACAUGAGGAUCACCCAUGUUUUGCGGUAA [Islalaus] (Eterna round: R97, puzzle: Exclusion 6) |  |  |  |  |  | 397 | 38.6 |  |
| UAGCUUUAUGUUAGGAUAUUCGCGCAUAUACUGCCGAAGAAGGAACAUGAGGAUCACCCAUGUACACGCCUAUG [Eternabot (L1) Solution 60] (Eterna round: R97, puzzle: Brourd's mod of Exclusion 4) |  |  |  |  |  | 81.1 | 20.9 |  |
| GGAUCGAGUGUGAGGAUAUACCUAUGGAAACAUAGGUAGAAGGCACAUGAGGAUCACCCAUGUUCCAACGGUCC [Mat - Exclusion 4 - Eli Mod - D11] (Eterna round: R97, puzzle: Brourd's mod of Exclusion 4) |  |  |  |  |  | 715 | 90.6 |  |
| UGCCCAGCAGGAUAUACAUGAGGAUCACCCAUGUCGAUUCAGUACGACUUAGUGCAACGUAGAAGGGCUGGGCC [Eternabot (L1) Solution 84] (Eterna round: R97, puzzle: Exclusion 3) |  |  |  |  |  | 405 | 39.5 |  |
| CUGCUGGAGCUUUGCUUUGGUCGUACAUGAGGAUCACCCAUGUAGGAUAUGGUAAGAUUUGCUUGCUAGAAGGAUAGAGUGGUC [salish99_ExNG3_r04_611] (Eterna round: R96, puzzle: Exclusion NG 3) |  |  |  |  |  | 80.9 | 49.7 | apparent KD of MS2 coat protein [2, 8]: 78.2 nM |
